# Experimental data published in the supplement of paper PMC12636428.
# Tested on: Saccharomyces cerevisiae
# Assay: transcriptional activation domain activity (GFP:mCherry ratio, weighted mean of sorted bins, harmonized to initial dataset scale) (arbitrary fluorescence ratio units); higher = stronger transcriptional activation
# Conditions: beta-estradiol 1 µM; induction time 4 h
# Outline: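 The listed activation activity is a read-weighted mean of bin median fluorescence, averaged across barcodes and linearly mapped onto the initial dataset scale. Barcoded tiles, fused to an estradiol-inducible synthetic transcription factor, were integrated at URA3 in yeast diploids bearing a GFP reporter. Cells were held 4 hours at 30 °C in SC with 1 uM beta-estradiol, sorted into 8 GFP:mCherry bins, and sequenced, and tiles with fewer than 50 reads were excluded.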
row,Sequence,transcriptional activation domain activity
1,MTVDHDFNSEDILFPIESMSSIQYVENNNPNNINNDVIPYSLDIKNTVLDSAD,76400
2,EAQAEEEVAPAPKPRGRPRRAAAEAPAPEISKPTTRGRAKKVEAPAEDVIVVE,24100
3,CLTQGLGICRDAENPEVNPDTATGEEGDVRTRCFQRDSLKDQVIVLAFLIITT,28900
4,MGFSIDRAIELIWNLLYFFFLSSFLHIFLGLSWDMIICWNYFLSLFILLVFSS,62600
5,MPVLFVFFSSFHSFIFLFFFYYGWLKVVIQVVMRLWGYKSLVGFFFLHGLLVC,66500
6,MEILKLPFYILHVLPLPIRGALATLTPLVRFHTVVVSLSCLLSLRCIYLLFFH,75300
7,EVMKIHPVQKQTRAGQRTRFKAYVVVGDSNGHVGLGVKCSKEVATAIRSAIIL,38700
8,VGPLSLDIILNKYDQDTELCAIVHESRRMLVRFYDIVKQNAMVIYSVFLWIPT,50900
9,YTYLSNAQLILSICSLYSCSPYLDPYMLLPLLRWAFLYVFLLVLAFAAVLFSA,41800
10,AASETTAKKSRGRKRKTVPEPDCDDEDNTGAARCSQPRSRKRARTTAPAEPRE,12200
11,LVLTGDAHSTYDVEVLVLMYILICGPFNFISGQLGEYRSIALVNVEFVVVWPA,63300
12,MLCLGLVDVYVNFLIFQLYNFLFLFGFLRWINEFVFGFPIHCLFCVILYLLIL,30900
13,MISFVSIVSILLAKSAFLFYFLRQDSFLPNLVFCLCISLLLLLVCLLQWLLVC,53700
14,NCMLRTIHLIWESNLSCTCIVNMLVLPCLHTLSITQCLYERKDKDPNPVILEA,59000
15,ATAANEEGEEGEATPKKTPRKRAAKKQDVDGDASPKKKGRGKKVSDDETNVKS,< 6570
16,FRYLSYSKWLILALYINSWAYVVLSMLLVYVVSASRKGRWRSASYRFHMILLS,64100
17,MFCLRSWLPLLFIPTNASPAFIFLFFVCTYFLNRPCVYCSFLLLILFATSCYW,36100
18,EPLFLEAQLIHMINFFETFFHKYETSIDRHNLIRHNALEKYYQGINCGRHMLC,95700
19,VLSRVTGLEHKQMCKIILGLIIDLLLPSGGDTSRILRTVRALLDFLYLAQLPS,73900
20,MLPLVLLLLLLLLLLLLLLLLLLLLLLLLLIMMMIMMMMFLLFLLLLRARVRQ,13600
21,DTWGMEMEMEMEFLFLFLFVIFFLPCLSFFFSYFFSSNLLFFFFVFVMSFSFM,73000

row,Sequence,transcriptional activation domain activity
1,YDLLSVKDLHIQDRLLSARIVLSDISFLKRILMLLGVPDGLSSRLVSHLWCAV,58400
2,VMSYLLCVALVFPVMIVLMLLGCVWFLIVLFFMLGVLIFIMCIGPLYVILKAP,10200
3,LSVSVQGGQLQLRGLNITLTRCHDFMRNIFPLDFPQGRLLALILSLRLFFLST,84500
4,DTPFALHTLLIMHGHILLCENAKVSLDSSDTLNIFVPLVTVLINRLTNRKEYS,32800
5,MSWQKVHSLFFLYFILPHGGFLFLVIRNIFFFFTYDLVLLWSFKFLLHLYVIF,59800
6,RAVAVLRRGDFAGAGGGGGSGAGGGKRRKEKEKEEQEERRRRPAVASRAVKDL,57500
7,MGKGGYGEQRGGGRGGFRGGRGGGRGGFGGGGFNQGPPSEVVVVGAFVSACEG,56800
8,FVEKGRERERGKGRRGGGGGAGEEQREGGGGGRGGGRGKTVVVVVRDVASSGD,25100
9,GFSVDPIVSLLYRAFTMMDVTFLRTVCFDIFSRYSTAELALVNQAFTAKHKKK,40700
10,HRRHHVLLPHPAHTLLKGCFEPAFHNSIWHILSCHMYIPCTPILLLLIIQHVL,33200
11,MRQCCRCGDALKRCVILAVIAFGSVPPVYVGLVACARCRVWLFSPGLLYLKWF,55500
12,MNGLWCRDDILFYISFVLILFSSFSIFLLLLDRLRFLFSFLFFFFFWCFVFIV,45800
13,SGICRLTFSFSTLFFNPDPSFSFFLSFFFLFFFSFLLLSFLLNLFPFLDFFFF,24000
14,EPKAEEPAPRKSDEGQGKDKEQPKEIKEEEQQRGRRPDKGKARVVVQGFAAEE,23200
15,NLCLLIAASLISIISLVNLLDFFLTWFGQFITIENLTLELILGYILYPYAWLL,40000
16,LCKAIQFCVFLGFALAGYNFEPWHQLIVYETLCFVLFLSRVLLTIQYAVVLVY,61400
17,KGGEKKEGEEQNGGGEKKGGEEQKGGGEKKGRWVEEKGGEEQKGGAIAAAGQN,14200
18,SDSGSEVDEKNNKNEKIDSESIKNNESKDDIPSKDENSSNDNREISKTDEEGH,35100
19,SLDHTSLWIRRSVLSFSIEQIKKVFFQLFSTWYIFIFQLPYFPEWLWKNKTYP,49100
20,SDSDEEDEDERAEDAEVDTSASVNRLRDAQAEVETGDVTRRIAIVNLDWDHIK,29200
21,MQVSNLLLLVLNLCCVVFLLINLDLHSCFFKLILFIFTSCLFNHPLPFQFIFT,51700

row,Sequence,transcriptional activation domain activity
1,MVNNYWSYQYSLMPFLFFFFVSQFKSCSYFFFSLLFFSWLFRFLVSYFLSWKT,71500
2,EHRVMSAKIKAGELIDNGRFVDEKSFEKPPIHFHLICDHNIRVLLIIIHHSLY,21300
3,EADGEVKTKSKKSKKQKGDAADSAEADDAKSAVPEGTDATKKKKKRKTQEPSD,30600
4,FLNRYLGLLGNIPVILEFFGNFTEHMFVFAFCFWLAFTQLVVIALLIIRTYAL,65900
5,IGYFVPTTKFHGPARFGYLEYADHIFRLYEILDWRVFVGISLFLHWVFSYSHT,39100
6,TLRVSNLLCWFLLCLTSVPGLGIVYYTYFLLPDTPYCLWALCLYTKSFIAPLM,63000
7,MGLSDWPRVLSWHASISLVYLPFWVVVSLVWRYHIWTLSSVVLIIFIHIIFGL,31700
8,AAGGGGTGAGGAAGAARAAGHGAVGAAAGDGEQREGRAGRGRGHGRGVEGGRG,59200
9,AASQNVDAQPKPKPAQDNDLESESGTSSSSSSSSESGSESDSGSDDGSASGSG,< 6570
10,DLLFNVAAFVFVGAWTPFNQFSDPALSLSVWRLIVIAILVLLLRRLPAIIALY,27800
11,AQPPAIEGKKSKKGEAPAAEVQKKEKKEKKPAEEGASKKGGSAKAAAAPAEDA,9790
12,GFRNFVERLTFCLLEDRVRIAMMQPEQPRYLHSFVSSVMGLNWMVQRWLCLPR,47600
13,MHRELTGYFFSFFFFLFFFSFFIHISRLAVYIWDWVTSLHFFIFVILNILGSS,66700
14,MTVEPSISLLFIDYLLFLIPFLSLFILFSLVLLLSYISPCNFFFFAISSQLPW,39200
15,IPTPFASHAFNPFDGFLQSLPYHLYAYFIPMHKYLYLSMFVFVNFWTVMIHDG,50600
16,FPILLRFIFTHFRMLFSCQLFCLMGFRVECLDFDPGSFILFHLTFLWLPFVLF,53300
17,INKGTNRFSETVLPPQMAAEQSWSDSNMELEICLDYLHNELEVIKKRQEDFEC,60200
18,RAARARATPARPRPRASASRARGACRASTRGCRRRRSSSSSSRAGARMRATSA,58600
19,IRGNMSGSEFHWTCKSLGLCGILVRCLAWYCISKMYVLPTCYRRMYCCEVYKD,49700
20,SGLPIQYLNGSVTYQDGWVWLPGDSTDINATVQDLEDMWDSMVLNFWPLMTLF,66100
21,SYQHLHSVMKVINCLNLMLVVCYFSDVRYLKVLVKFWNELHNDVVSRNKLIIV,42300

row,Sequence,transcriptional activation domain activity
1,PSTSPTPSSACAPSAASSTRSPPSTPARGGATSGTCCASACAASTPCVTRYTG,11500
2,QENHNSSENGNENENEQDSLALDDLDRAFELVEGMDMDWMMPSHAHHSPATTA,123000
3,HGPMFHFSISNWVEGAKLAGHGNPTGHNPELILNNFRTPLGLLTAHLFKTMFP,52200
4,LGTEVVTLEDEIYYIWVRYYSIALLVFDTPNSHLCHSRNNLGQLVAVINVFLF,46300
5,SNYSNLATRAPSGPPQFLVNNVIQHWGGVDGWIKWILKIRKAYILRRDVFLAT,56800
6,PARAHGNRDDERGGGVRGGVPADARATLARRVQPHPLARARARVCAGAAVRGE,48600
7,DSKGFEARRANMGNDVELTGARAIVLVNIWNVQTSCGLSVPLVVQSNSGTECG,59400
8,KEVMDQIHAIWCILLYLYYGTLETDHVFRFCFAPNVSRPLSELEQRFFNERHG,48000
9,VLLYTGLLKFFNLGVLTATLVEVCKRPWRIRMANGRVDRMKYFNLVFGIVWEC,58700
10,MLFARLHPVADETLIPFFCFWPSRLFVVLLVSFLHLIILFLSCFFFNCFLLFF,50300
11,TMYYDAIWLMWKDHSLQGWEVAHNTFDQLHVVLDDHLLYPVLNLLMIVIILPD,51200
12,LLLFNDEYTHIWSTPSFALKWIYLFARYFPLLFQSTSYYLLTHILSRPPISWS,61800
13,KQYCVRPNSGRIEPGGEVDVQILLQAMKEDPPADAKCRDKFLVQSVLVTADKE,50100
14,MMSDSGQDEKTLPQADKNGTSQVAVPLEATEASEQALLRRLLRKTDLLVMPGL,24200
15,LYYTAPFNLQPYISYVGCGLVCLVLFFNGFWIFFPGQFSVANLFTSYFAPVFF,65000
16,TIMYGVRFVVVLLTMEIMIHFMYMVAIFHAKPDWSAYTPFQLSMLGYFNLNHI,46200
17,IYETVNTITELSCLLPGGPWFPHARELWWYASEPAGVRYVAVLLSPTLRSLRL,69700
18,YTRVVTRFKRLFVSSRGYTAFIPALFKVFCDVEHLAPIRSAIVFAWCRFYAVH,67300
19,HLRNDTRLIPGIKYLQMVLGRVRYCREIIAILARNGHRLPKGMLSTLVRLWLL,34800
20,KAAEKPAPAVSPSAPAAKAVHHNNNSNAKKQEQQQQQRAKSPAAASASAPAPA,16600
